Literature values, collected in publication PMC2892782.

Biological target: Lys41 (UniProt position 67, TKDRCKPVNTF)
Assay: NMR

## Ribonuclease A (bovine pancreatic ribonuclease) (Bos taurus)
  pKa: 8.6-9.1
